This note sets out measurements from US20220396612A1 (UNIVERSIT DE TOURS, published 2022).

For assay [1], the target named is T1, virus-like particles (VLPs) of BK polyomavirus VP-1 protein, serotype Ib2 (BK virus (BKPyV), serotype Ib2, PA …, UniProt P03088 1-362).
T1 construct: native VLPs; also the immunogen; also called VLP Ib2; BK Ib2
T1 chain: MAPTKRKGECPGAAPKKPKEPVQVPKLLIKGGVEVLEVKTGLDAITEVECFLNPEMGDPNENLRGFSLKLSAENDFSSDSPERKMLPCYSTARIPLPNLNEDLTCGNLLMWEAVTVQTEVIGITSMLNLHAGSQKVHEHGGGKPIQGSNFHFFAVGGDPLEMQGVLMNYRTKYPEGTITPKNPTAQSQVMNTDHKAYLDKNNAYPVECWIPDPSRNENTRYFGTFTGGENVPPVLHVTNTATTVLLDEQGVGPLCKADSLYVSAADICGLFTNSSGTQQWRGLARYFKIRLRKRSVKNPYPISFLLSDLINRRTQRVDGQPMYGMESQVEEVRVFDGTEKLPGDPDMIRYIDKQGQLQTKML
Briefly: ELISA on coated VLP (detection limit OD>0.5). (In general: In an ELISA, binding on a coated surface is turned into a signal by an enzyme label.)
Method: (§1) To do this, the VLPs produced were deposited at a concentration of 1 μg/mL in PBS and incubated overnight at +4° C. The wells were then blocked for 1 h at +37° C. with a PBS/FCS (phosphate-buffered saline/fetal calf serum) mixture. After dilution in a dilution buffer containing FCS, PBS and Tween® 20, the various hybridoma culture supernatants were added for 1 h at +37° C. The wells were washed four times in a row with Wash Buffer and a secondary anti-mouse antibody coupled to peroxidase was added to the 1:2000 dilution for 1 h at +37° C. The wells were washed four more times and the substrate (OPD (ortho phenylene diamine)+H₂O₂) was added for 30 min at room temperature. A stop solution (H₂SO₄ 4N) was then added and each well was read by measuring the absorbance at 492 nm with a spectrophotometer. The value obtained for the average of the control wells (PBS in the first step) is subtracted from the optical density values obtained for each well.

Assay [2] addresses T2, virus-like particles (VLPs) of JC polyomavirus VP-1 protein (JC virus (JCPyV), UniProt P03089 1-354, Assembled into virus-like particles (many VP-1 copies); the letters give one VP-1 chain.).
T2 construct: Expressed in insect cells by baculovirus; VLPs coated on ELISA plates; also called JCPyV VLPs; JCPyV
Put plainly: ELISA on coated VLP (detection limit OD>0.5).
Method: as §1

The target in assay [3] is T2, virus-like particles (VLPs) of JC …. Briefly: ELISA on coated JCPyV VLPs.
Assay [4] addresses T3, virus-like particles (VLPs) of BK polyomavirus VP-1 protein, serotype III (BK virus (BKPyV), serotype III, UniProt P14996 1-362).
T3 construct: native VLPs; also called VLP III
T3 chain: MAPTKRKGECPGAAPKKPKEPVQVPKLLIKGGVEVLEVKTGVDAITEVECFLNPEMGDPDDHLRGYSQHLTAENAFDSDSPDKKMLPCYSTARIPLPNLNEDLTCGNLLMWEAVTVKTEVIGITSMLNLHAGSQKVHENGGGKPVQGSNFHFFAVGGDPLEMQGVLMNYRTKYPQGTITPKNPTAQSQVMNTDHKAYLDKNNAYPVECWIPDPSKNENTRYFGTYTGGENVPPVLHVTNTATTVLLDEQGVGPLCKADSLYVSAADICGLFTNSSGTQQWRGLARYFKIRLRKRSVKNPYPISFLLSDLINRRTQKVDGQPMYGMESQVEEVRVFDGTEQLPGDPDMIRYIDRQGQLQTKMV
Put plainly: ELISA on coated VLP.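 Further: hybridoma culture supernatants (mouse antibodies) tested on wells coated with 1 µg/mL VLPs, peroxidase anti-mouse detection with OPD, background from PBS-coated control wells subtracted.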
Method: as §1

For assay [5], the target named is T4, virus-like particles (VLPs) of BK polyomavirus VP-1 protein, serotype IV (BK virus (BKPyV), serotype IV, UniProt P14996 1-362).
T4 construct: native VLPs; also called VLP IV
T4 chain: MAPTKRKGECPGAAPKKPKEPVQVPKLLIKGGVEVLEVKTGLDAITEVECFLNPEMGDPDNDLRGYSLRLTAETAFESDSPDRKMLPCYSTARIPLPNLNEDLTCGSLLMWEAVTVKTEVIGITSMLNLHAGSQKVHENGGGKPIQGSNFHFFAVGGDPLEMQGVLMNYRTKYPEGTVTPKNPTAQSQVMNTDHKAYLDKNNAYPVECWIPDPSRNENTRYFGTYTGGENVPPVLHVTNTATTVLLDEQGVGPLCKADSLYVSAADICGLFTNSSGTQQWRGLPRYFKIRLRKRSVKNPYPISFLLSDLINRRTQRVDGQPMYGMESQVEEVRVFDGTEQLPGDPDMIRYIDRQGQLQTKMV
Briefly: ELISA on coated VLP.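 Further: hybridoma culture supernatants (mouse antibodies) tested on wells coated with 1 µg/mL VLPs, peroxidase anti-mouse detection with OPD, background from PBS-coated control wells subtracted.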
Method: as §1

For assay [6], the target named is T5, virus-like particles (VLPs) of BK polyomavirus VP-1 protein, serotype Ia (BK virus (BKPyV), serotype Ia, UniProt P03088 1-361).
T5 construct: self-assembled native VLPs coated on ELISA plates; also called VLP Ia; BKV VP-1, serotype Ia
T5 chain: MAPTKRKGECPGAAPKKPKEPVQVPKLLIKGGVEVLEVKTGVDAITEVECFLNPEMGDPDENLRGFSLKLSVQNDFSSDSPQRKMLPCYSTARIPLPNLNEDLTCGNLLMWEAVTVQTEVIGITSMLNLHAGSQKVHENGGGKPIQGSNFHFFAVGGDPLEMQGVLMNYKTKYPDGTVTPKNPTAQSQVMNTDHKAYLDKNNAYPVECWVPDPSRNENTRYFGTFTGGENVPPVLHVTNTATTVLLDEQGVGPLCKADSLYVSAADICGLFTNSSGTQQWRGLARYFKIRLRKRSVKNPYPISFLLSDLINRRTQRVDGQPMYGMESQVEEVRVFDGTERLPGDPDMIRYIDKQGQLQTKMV
Put plainly: ELISA on coated VLP.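 Further: hybridoma culture supernatants (mouse antibodies) tested on wells coated with 1 µg/mL VLPs, peroxidase anti-mouse detection with OPD, background from PBS-coated control wells subtracted.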
Method: as §1

The target of assay [7] is T1, virus-like particles (VLPs) of BK …. Briefly: ELISA on coated VLP.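 Further: hybridoma culture supernatants (mouse antibodies) tested on wells coated with 1 µg/mL VLPs, peroxidase anti-mouse detection with OPD, background from PBS-coated control wells subtracted.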
Method: as §1
Assay [8] concerns the target T6, virus-like particles (VLPs) of BK polyomavirus VP-1 protein, serotype II (BK virus (BKPyV), serotype II, UniProt P14996 1-362).
T6 construct: native VLPs; also called VLP II
T6 chain: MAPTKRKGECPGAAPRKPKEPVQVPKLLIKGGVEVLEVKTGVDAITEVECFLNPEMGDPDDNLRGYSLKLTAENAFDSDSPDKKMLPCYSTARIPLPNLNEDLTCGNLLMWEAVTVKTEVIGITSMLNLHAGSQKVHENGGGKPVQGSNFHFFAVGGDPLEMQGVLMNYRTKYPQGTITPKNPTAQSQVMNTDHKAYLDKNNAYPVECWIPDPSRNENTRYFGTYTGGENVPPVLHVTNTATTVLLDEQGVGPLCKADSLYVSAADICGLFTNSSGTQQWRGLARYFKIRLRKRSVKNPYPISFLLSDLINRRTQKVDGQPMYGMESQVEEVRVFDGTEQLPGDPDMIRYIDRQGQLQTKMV
Put plainly: ELISA on coated VLP.
Method: as §1

Assay [9] has as its target T1, virus-like particles (VLPs) of BK …. Put plainly: ELISA on coated VLP; supernatant 1/10.
Method: as §1
The target of assay [10] is T6, virus-like particles (VLPs) of BK …. Put plainly: ELISA on coated VLP; supernatant 1/10.
Method: as §1

T2 sequence (P03089 whole entry): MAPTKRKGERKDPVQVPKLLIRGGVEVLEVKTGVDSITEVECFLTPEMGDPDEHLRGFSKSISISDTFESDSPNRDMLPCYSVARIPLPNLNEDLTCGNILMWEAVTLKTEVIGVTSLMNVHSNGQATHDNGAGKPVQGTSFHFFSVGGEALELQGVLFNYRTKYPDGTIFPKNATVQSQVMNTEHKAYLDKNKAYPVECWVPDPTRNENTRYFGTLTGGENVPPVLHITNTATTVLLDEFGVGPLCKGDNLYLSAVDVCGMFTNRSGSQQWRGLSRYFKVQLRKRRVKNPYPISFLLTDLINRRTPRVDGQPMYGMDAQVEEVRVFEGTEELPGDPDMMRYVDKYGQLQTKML

B1: monoclonal antibody ‘18A2’ derived from hybridoma 18A2 (antibody, V domains shown)
VH: DVQLQESGPGLVKPSQSLSLTCSVTGYSITSGYYWNWIRQFPGNKLEWMGYISYDGSNNYNPSLKNRISITRDTSKNQFFLKLNSVTTEDTATYYCARWEGTTDYWGQGTTLTVSS
VL: not shown
notes: Mouse hybridoma antibody
With B1, the “OD 492 nm” value in [1] stood at 0.565 OD; in [2], 0.116 OD; in assay [4], 0.763 OD; in assay [5] it was 1.22 OD; in assay [6], 2.22 OD; in assay [7] it was 3.02 OD. Also, in assay [8], the “OD 492 nm” value turned out to be 1.05 OD. Also, the binding result in [3] is “no binding (tested: detection limit: OD>0.5)”.

B2: monoclonal antibody ‘F6’ secreted by clone BK6A2F6 (antibody)
heavy: EVQLQQSGPELVKPGASVKISCKASGYSFTGYFMNWVKQSHGKSLEWIGRINPYNGDTFYNQKFKGKATLTVDKSSSTAHMELLSLTSEDSAVYYCGSYYYGDYFDYWGQGTTLTVSSAKTTPPSVYPLAPGSAAQTNSMVTLGCLVKGYFPEPVTVTWNSGSLSSGVHTFPAVLQSDLYTLSSSVTVPSSTWPSETVTCNVAHPASSTKVDKKIVPRDCGCKPCICTVPEVSSVFIFPPKPKDVLTITLTPKVTCVVVDISKDDPEVQFSWFVDDVEVHTAQTQPREEQFNSTFRSVSELPIMHQDWLNGKEFKCRVNSAAFPAPIEKTISKTKGRPKAPQVYTIPPPKEQMAKDKVSLTCMITDFFPEDITVEWQWNGQPAENYKNTQPIMDTDGSYFVYSKLNVQKSNWEAGNTFTCSVLHEGLHNHHTEKSLSHSPGK
light: […]
Turning to B2, the “OD 492 nm” value in [9] came out at 2.7 OD; in [10] it was 3 OD; in [1], 3 OD; in [2], 0.028 OD; in assay [4] it was 0.42 OD; in [5] it was 3.16 OD. For the same molecule, the “OD 492 nm” value in assay [6] stood at 3.23 OD; in assay [7], 2.89 OD; in [8] it was 1.65 OD. The binding result in [3] is listed as “no binding (tested: detection limit: OD>0.5)”.

B3: monoclonal antibody ‘H6’ secreted by clone BK6A2H6 (antibody, V domains shown)
VH: EVQLQQSGPELVKPGASVKISCKASGYSFTGYFMNWVKQSHGKSLEWIGRINPYNGDTFYNQKFKGKATLTVDKSSSTAHMELLSLTSEDSAVYYCGSYYYGDYFDYWGQGTTLTVSS
VL: SIVMTQIPKFLLVSEGDRVTITCKASQSVSNDVAWYQQKSGQSPKLLIYYASNRYTGVPDRFTGSGYGTDFTFTISTVQAEDLAVYFCQQDYSSPLTFGAGTKLELKR
As for B3, the “OD 492 nm” value in assay [9] was 1.71 OD; in assay [10] it was 2.96 OD; in assay [1] it was 2.97 OD; in assay [2] it was 0.013 OD; in assay [4] it was 0.481 OD; in [5] it was 3.21 OD. Moreover, the entries for the “OD 492 nm” value in [6], in assay [7] and in [8] were 3.06 OD, 3.19 OD and 0.86 OD, respectively. Moreover, the binding result in assay [3] is given as “no binding (tested: detection limit: OD>0.5)”.
